Article PMC4509546, “Structural Characterization of the Chaetomium thermophilum TREX-2 Complex and its Interaction with the mRNA Nuclear Export Factor Mex67:Mtr2” (Structure(London, England:1993), 2015)
One block for each molecule: values may come before it.

Experiments:
[1] = molecular target: GST-tagged ctMlp1^(1797-1960) (Chaetomium thermophilum); assay: SPR; GST-tagged ligands captured by anti-GST antibody on CM5 chip; ctMex67:Mtr2 injected at 0.11-10 μM for 120 s, dissociation 600 s; BIAcore T200, 30 μl/min, 25°C, 20 mM Na-HEPES pH 7.5, 400 mM NaCl, 2 mM MgCl2, 5% glycerol, 0.01% NP-40; double exponential fits
Sequence of GST-tagged ctMlp1^(1797-1960) (Chaetomium thermophilum) (G0SA56 1797-1960): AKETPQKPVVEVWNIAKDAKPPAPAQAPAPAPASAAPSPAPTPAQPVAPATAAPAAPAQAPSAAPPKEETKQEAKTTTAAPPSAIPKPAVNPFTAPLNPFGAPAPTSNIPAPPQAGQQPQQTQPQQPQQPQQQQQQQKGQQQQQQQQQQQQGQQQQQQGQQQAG

[2] = molecular target: GST-tagged ctSac3N^(1-210) (Chaetomium thermophilum) (UniProt G0SGL4); assay: as above
[3] = molecular target: GST-tagged ctNup145^(213-567) (Chaetomium thermophilum); assay: as above
[4] = molecular target: T1, C. thermophilum TREX-2 CID region complex (ctSac3^CID:ctSus1:ctCdc31) (Chaetomium thermophilum, UniProt G0SGL4 1086-1170; G0S6Y1 1-168; G0SAR7 1-177); assay: SPR; ctSac3 CID region with the Sac3N FG region; who was immobilised is not told in the text (Figure S2); general SPR conditions: BIAcore T200, 25°C, 20 mM Na-HEPES pH 7.5, 400 mM NaCl, 2 mM MgCl2, 5% glycerol, 0.01% NP-40; details: both partners purified
T1 construct: as m1; Sus1, Chaetomium thermophilum, locus CTHT_0027270; as m2; as m3; Used here for the SPR of 'the ctSac3 CID region' with Sac3N; also called ctSac3 CID region; CID region of TREX-2; source: E. coli, co-expressed, purified (GSH, TEV cleavage, size-exclusion chromatography); copies: 1 + 1 + 1
T1 sequence 1: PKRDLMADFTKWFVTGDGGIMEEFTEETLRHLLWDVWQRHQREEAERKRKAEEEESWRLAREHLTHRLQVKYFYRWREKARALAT
T1 sequence 2: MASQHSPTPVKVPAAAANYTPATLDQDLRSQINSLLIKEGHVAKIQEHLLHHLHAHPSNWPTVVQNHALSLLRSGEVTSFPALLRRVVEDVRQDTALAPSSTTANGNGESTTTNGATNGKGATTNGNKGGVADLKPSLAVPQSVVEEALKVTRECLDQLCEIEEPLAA
T1 sequence 3: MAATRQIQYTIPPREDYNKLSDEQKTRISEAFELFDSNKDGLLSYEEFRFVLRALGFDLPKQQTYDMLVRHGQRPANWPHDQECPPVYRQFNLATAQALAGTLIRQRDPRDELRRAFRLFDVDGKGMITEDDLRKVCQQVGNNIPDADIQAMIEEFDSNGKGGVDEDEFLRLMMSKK

KD1 [1]: 309 nM
KD2 [1]: 419 nM
koff1 [1]: 0.071 s⁻¹
koff2 [1]: 0.0088 s⁻¹
kon1 [1]: 230000 M⁻¹ s⁻¹
kon2 [1]: 21000 M⁻¹ s⁻¹
KD1 [2]: 39 nM
KD2 [2]: 148 nM
koff1 [2]: 0.073 s⁻¹
koff2 [2]: 0.0049 s⁻¹
kon1 [2]: 1.9e+06 M⁻¹ s⁻¹
kon2 [2]: 33000 M⁻¹ s⁻¹
KD1 [3]: 238 nM
KD2 [3]: 264 nM
koff1 [3]: 0.071 s⁻¹
koff2 [3]: 0.0074 s⁻¹
kon1 [3]: 300000 M⁻¹ s⁻¹
kon2 [3]: 28000 M⁻¹ s⁻¹
Molecule: ctMex67:Mtr2 complex

Kd [4]: 2200 nM
koff [4]: 0.00052 s⁻¹
kon [4]: 235 M⁻¹ s⁻¹
B1: GST-tagged ctSac3N^(1-210) (domain or fragment, Chaetomium thermophilum, UniProt G0SGL4 1-210, looked up)
chain: MMAPANNPFGAPPAQVNNPFASPAPSNQGSSVFGAPAQSTFGAPSSNNPFGASSAKPSGAPAANPFGAPIKNPFGASAQNAQNKPFGAPTAGNGSSLAAANPFGAASGQTSAFGSTPAGSAPQSKGSSRQPSPAGRQNQSGRQQANLVGAPQGPSGKKRTPSPFDTRQRTQAPSKRAQASEESDSDAMSGRKSKGKGFGGLKSQPPAANK
notes: also called GST-Sac3N; GST-Sac3; source: E. coli (general method), captured on an anti-GST antibody-coated CM5 chip
